According to paper PMC6158172, “A bidentate Polycomb Repressive-Deubiquitinase complex is required for efficient activity on nucleosomes” (Nature Communications, 2018):

B2: Calypso^43–404 (wild type), as in the Calypso^43–404–ASX^207–340 complex (enzyme, Drosophila melanogaster, UniProt Q7K5N4 43-404, looked up)
chain: ADGWLELESDPGLFTLLLKDFGCHDVQVEEVYDLQKPIESPYGFIFLFRWIEERRARRKIVETTAEIFVKDEEAISSIFFAQQVVPNSCATHALLSVLLNCNENNLQLGDTLSRLKTHTKGMSPENKGLAIGNTPELACAHNSHAMPQARRRLERTGAGVSSCRFTGEAFHFVSFVPINGQLFELDGLKPYPMNHGGWEDSEDWTDKFRRVMAERLGIATGEQDIRFNLMAVVPDRRIAITHKLKMLRTNQAIVSGTLQKLLKADEQGESGNGDSQRPDTPTTLLEPSAFTARDLQSLLKNLDTEIAINEQHLADENDRRHMFKVDASRRTHNYDKFICTFLSMLAHQGVLGELVSQHLLPS
notes: Calypso, deubiquitinase of the Drosophila PR-DUB, residues 43-404 (UCH domain, coiled-coil hairpin, ULD; lacks the C-terminal positively charged tail 405-471); Always handled together with ASX 207-340, with which it was co-expressed; two copies per 2:2 complex at high concentration; also called WT^(no tail); Calypso^(no tail); source: E. coli BL21 (DE3), co-expressed with ASX, purified …

Columns and labels:
[1] = target: T1, Calypso(N292R)^43–404, as in the Calypso(N292R)–ASX complex (Drosophila melanogaster, UniProt Q7K5N4 43-404, N292R); experiment: SEC-MALLS; Superdex 200 5/150 GL Increase, 20 mM HEPES pH 7.5, 100 mM NaCl; wild type injected at 90 and 45 μM, wild type and mutants at ~50 μM; conditions: both partners purified
T1 construct: Calypso, Drosophila, residues 43-404, N292R; Handled together with ASX 207-340; source: E. coli BL21 (DE3), co-expressed with ASX, purified (Ni-NTA, 3C cleavage, HiTrap Q, Superdex 200); not shown: His6, N-terminal, cleaved
T1 sequence (looked up): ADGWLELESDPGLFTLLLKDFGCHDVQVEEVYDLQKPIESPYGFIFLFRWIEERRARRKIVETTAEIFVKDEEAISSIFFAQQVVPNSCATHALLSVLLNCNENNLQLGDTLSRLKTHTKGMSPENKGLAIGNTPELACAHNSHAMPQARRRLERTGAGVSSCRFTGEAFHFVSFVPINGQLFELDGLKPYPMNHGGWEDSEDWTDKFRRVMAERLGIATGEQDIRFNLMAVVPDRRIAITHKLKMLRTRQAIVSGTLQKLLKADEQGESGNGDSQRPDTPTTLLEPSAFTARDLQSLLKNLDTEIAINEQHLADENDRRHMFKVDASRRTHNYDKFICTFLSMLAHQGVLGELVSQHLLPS

[2] = target: T2, Calypso(L340A)^43–404, as in the Calypso(L340A)–ASX complex (Drosophila melanogaster, UniProt Q7K5N4 43-404, L340A); experiment: as above; conditions: both partners purified
T2 construct: Calypso, Drosophila, residues 43-404, L340A; Handled together with ASX 207-340; source: E. coli BL21 (DE3), co-expressed with ASX, purified (Ni-NTA, 3C cleavage, HiTrap Q, Superdex 200); not shown: His6, N-terminal, cleaved
T2 sequence (looked up): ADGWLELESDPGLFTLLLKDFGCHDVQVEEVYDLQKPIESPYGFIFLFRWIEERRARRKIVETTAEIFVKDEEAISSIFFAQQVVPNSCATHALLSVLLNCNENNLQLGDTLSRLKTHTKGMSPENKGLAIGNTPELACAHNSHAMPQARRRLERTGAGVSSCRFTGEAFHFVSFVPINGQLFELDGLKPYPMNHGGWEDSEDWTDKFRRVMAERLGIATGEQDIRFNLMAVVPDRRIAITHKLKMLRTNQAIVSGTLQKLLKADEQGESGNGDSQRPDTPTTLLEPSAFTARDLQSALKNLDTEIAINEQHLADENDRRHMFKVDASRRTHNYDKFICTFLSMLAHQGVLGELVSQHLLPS

[3] = target: B2; experiment: AUC; sedimentation velocity, c(s) analysis, 40 µM complex, 20 °C, 20 mM HEPES pH 7.8, 100 mM NaCl, 0.8 mM TCEP, 50,000 r.p.m.; conditions: both partners purified
[4] = target: the molecule itself; experiment: as above
[5] = target: the molecule itself; experiment: SEC-MALLS; Superdex 200 5/150 GL Increase, 20 mM HEPES pH 7.5, 100 mM NaCl; wild type injected at 90 and 45 μM, wild type and mutants at ~50 μM

B1: ASX^207–340 (Deubad domain of Additional Sex Combs), as in the Calypso^43–404–ASX^207–340 complex (domain or fragment, Drosophila melanogaster, UniProt Q9V727 207-340, looked up)
chain: DGKIDLETPDSILASTNLRALLNKQTFSLLPPLYQYNLIQLLPSVDREASESEAIRLSASCLNNEFFARACLEWRERLSEGEFTPENQLKLKTEAEREKNKLDPWKLKHFEPFWGEKNSRG
notes: Additional Sex Combs (ASX), Drosophila, Deubad domain, residues 207-340 with residues 258-270 omitted; Second open reading frame of the co-expression construct; also called ASX Deubad; source: E. coli BL21 (DE3), co-expressed with His6-Calypso, purified (Ni-NTA, HiTrap Q, Superdex 200)
With B1 the “stoichiometry N” value [1] was 1 ASX per Calypso (1:1), the “stoichiometry N” value [2] was 1 ASX per Calypso (1:1) and the “stoichiometry N” value [3] was 1 ASX per Calypso (2:2).

B2 was tested, and the “stoichiometry N” value [4] was 2.

B3: Calypso(M288R)^43–404, as in the Calypso(M288R)–ASX complex (enzyme, Drosophila melanogaster, UniProt Q7K5N4 43-404, looked up)
chain: ADGWLELESDPGLFTLLLKDFGCHDVQVEEVYDLQKPIESPYGFIFLFRWIEERRARRKIVETTAEIFVKDEEAISSIFFAQQVVPNSCATHALLSVLLNCNENNLQLGDTLSRLKTHTKGMSPENKGLAIGNTPELACAHNSHAMPQARRRLERTGAGVSSCRFTGEAFHFVSFVPINGQLFELDGLKPYPMNHGGWEDSEDWTDKFRRVMAERLGIATGEQDIRFNLMAVVPDRRIAITHKLKRLRTNQAIVSGTLQKLLKADEQGESGNGDSQRPDTPTTLLEPSAFTARDLQSLLKNLDTEIAINEQHLADENDRRHMFKVDASRRTHNYDKFICTFLSMLAHQGVLGELVSQHLLPS
notes: Calypso, Drosophila, residues 43-404, M288R; Handled together with ASX 207-340; source: E. coli BL21 (DE3), co-expressed with ASX, purified (Ni-NTA, 3C cleavage, HiTrap Q, Superdex 200); not shown: His6, N-terminal, cleaved
B3: binds [5].
